Reference: patent US5866538A, “Insulin preparations containing NaCl” (Novo Nordisk A/S, priority 1996, dated 1999)

Key:
[1] = Stability (formation of dimers and polymers) of B29-N^ε-myristoyl-des(B30) human insulin solutions, varying NaCl, mannitol and phenol (Example V); type: physicochemical; details: pH 7.4
Description: Solutions containing 0.6 mM B29-N^ε -myristoyl-des(B30) human insulin, 1.5 or 4.0 mg/ml phenol, 5 mM sodium phosphate, 13.1 μg/ml Zn, and varying amounts of sodium chloride and mannitol were prepared. pH was adjusted to 7.4. Stability data (formation of dimers and polymers) after storage at 25° C. for 13 weeks or 37° C. for 8 weeks are presented in the following table 7.

[2] = Stability (formation of dimers and polymers) of B29-N^ε-myristoyl des(B30) human insulin solutions, glycerol or mannitol, varying NaCl (Example VI); type: physicochemical; details: pH 7.5
Description: Solutions containing 0.6 mM B29-N^ε -myristoyl des(B30) human insulin, 1.5 mg/ml phenol and 1.72 mg/ml m-cresol, 16 mg/ml glycerol or 36 mg/ml mannitol, 13.1 μg/ml Zn, 7 mM sodium phosphate and varying amounts of sodium chloride were prepared. pH was adjusted to 7.5. Stability data (formation of dimers and polymers) after storage at 25° C. for 13 weeks or 37° C. for 8 weeks are presented in the following table 8.

## B29-N^ε -myristoyl-des(B30) human insulin
[1]; 8 weeks at 37° C., NaCl 20 mM, mannitol 31 mg/ml, phenol 1.5 mg/ml
  Di- & polymers (%) formed: 0.77%
[1]; 8 weeks at 37° C., NaCl 20 mM, mannitol 31 mg/ml, phenol 4.0 mg/ml
  Di- & polymers (%) formed: 0.77%
[1]; 8 weeks at 37° C., NaCl 50 mM, mannitol 22 mg/ml, phenol 1.5 mg/ml
  Di- & polymers (%) formed: 0.71%
[1]; 8 weeks at 37° C., NaCl 50 mM, mannitol 22 mg/ml, phenol 4.0 mg/ml
  Di- & polymers (%) formed: 0.71%
[1]; 8 weeks at 37° C., NaCl 75 mM, mannitol 13 mg/ml, phenol 1.5 mg/ml
  Di- & polymers (%) formed: 0.65%
[1]; 8 weeks at 37° C., NaCl 75 mM, mannitol 13 mg/ml, phenol 4.0 mg/ml
  Di- & polymers (%) formed: 0.70%
[1]; 8 weeks at 37° C., NaCl 100 mM, mannitol 5 mg/ml, phenol 1.5 mg/ml
  Di- & polymers (%) formed: 0.66%
[1]; 8 weeks at 37° C., NaCl 100 mM, mannitol 5 mg/ml, phenol 4.0 mg/ml
  Di- & polymers (%) formed: 0.68%
[1]; 13 weeks at 25° C., NaCl 20 mM, mannitol 31 mg/ml, phenol 1.5 mg/ml
  Di- & polymers (%) formed: 0.40%
[1]; 13 weeks at 25° C., NaCl 20 mM, mannitol 31 mg/ml, phenol 4.0 mg/ml
  Di- & polymers (%) formed: 0.42%
[1]; 13 weeks at 25° C., NaCl 50 mM, mannitol 22 mg/ml, phenol 1.5 mg/ml
  Di- & polymers (%) formed: 0.35%
[1]; 13 weeks at 25° C., NaCl 50 mM, mannitol 22 mg/ml, phenol 4.0 mg/ml
  Di- & polymers (%) formed: 0.37%
[1]; 13 weeks at 25° C., NaCl 75 mM, mannitol 13 mg/ml, phenol 1.5 mg/ml
  Di- & polymers (%) formed: 0.34%
[1]; 13 weeks at 25° C., NaCl 75 mM, mannitol 13 mg/ml, phenol 4.0 mg/ml
  Di- & polymers (%) formed: 0.39%
[1]; 13 weeks at 25° C., NaCl 100 mM, mannitol 5 mg/ml, phenol 1.5 mg/ml
  Di- & polymers (%) formed: 0.31%
[1]; 13 weeks at 25° C., NaCl 100 mM, mannitol 5 mg/ml, phenol 4.0 mg/ml
  Di- & polymers (%) formed: 0.37%
[2]; 8 weeks at 37° C., NaCl 5 mM, glycerol 16 mg/ml
  Di- & polymers (%) formed: 2.55%
[2]; 8 weeks at 37° C., NaCl 5 mM, mannitol 36 mg/ml
  Di- & polymers (%) formed: 2.28%
[2]; 8 weeks at 37° C., NaCl 10 mM, glycerol 16 mg/ml
  Di- & polymers (%) formed: 2.25%
[2]; 8 weeks at 37° C., NaCl 10 mM, mannitol 36 mg/ml
  Di- & polymers (%) formed: 1.90%
[2]; 8 weeks at 37° C., NaCl 20 mM, glycerol 16 mg/ml
  Di- & polymers (%) formed: 1.82%
[2]; 8 weeks at 37° C., NaCl 20 mM, mannitol 36 mg/ml
  Di- & polymers (%) formed: 1.61%
[2]; 8 weeks at 37° C., NaCl 30 mM, glycerol 16 mg/ml
  Di- & polymers (%) formed: 1.83%
[2]; 8 weeks at 37° C., NaCl 40 mM, glycerol 16 mg/ml
  Di- & polymers (%) formed: 1.78%
[2]; 8 weeks at 37° C., NaCl 40 mM, mannitol 36 mg/ml
  Di- & polymers (%) formed: 1.56%
[2]; 8 weeks at 37° C., NaCl 50 mM, glycerol 16 mg/ml
  Di- & polymers (%) formed: 1.68%
[2]; 13 weeks at 25° C., NaCl 5 mM, glycerol 16 mg/ml
  Di- & polymers (%) formed: 1.08%
[2]; 13 weeks at 25° C., NaCl 5 mM, mannitol 36 mg/ml
  Di- & polymers (%) formed: 1.05%
[2]; 13 weeks at 25° C., NaCl 10 mM, glycerol 16 mg/ml
  Di- & polymers (%) formed: 0.98%
[2]; 13 weeks at 25° C., NaCl 10 mM, mannitol 36 mg/ml
  Di- & polymers (%) formed: 0.84%
[2]; 13 weeks at 25° C., NaCl 20 mM, glycerol 16 mg/ml
  Di- & polymers (%) formed: 0.80%
[2]; 13 weeks at 25° C., NaCl 20 mM, mannitol 36 mg/ml
  Di- & polymers (%) formed: 0.71%
[2]; 13 weeks at 25° C., NaCl 30 mM, glycerol 16 mg/ml
  Di- & polymers (%) formed: 0.80%
[2]; 13 weeks at 25° C., NaCl 40 mM, glycerol 16 mg/ml
  Di- & polymers (%) formed: 0.79%
[2]; 13 weeks at 25° C., NaCl 40 mM, mannitol 36 mg/ml
  Di- & polymers (%) formed: 0.70%
[2]; 13 weeks at 25° C., NaCl 50 mM, glycerol 16 mg/ml
  Di- & polymers (%) formed: 0.72%
